Assay results reported in the supplement of paper PMC9170038.

System: MS2 coat protein
Assay: apparent KD of MS2 coat protein; designed switch direction (-1 OFF switch, 1 ON switch): -1; higher = weaker reporter binding
How it was run: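 Designed RNA switches with common flanks were transcribed on Illumina chips by stalled E. coli RNA polymerase and titrated with SNAP-549-labelled MS2 coat protein, from 0.7 or 1.5 nM doubling to 3 µM, in Tris-HCl pH 7.5 buffer with KCl, MgCl2, BSA, DTT, tRNA and Tween-20. Steps lasted 0.8–1.5 h (lowest) to 10–20 min (highest). Titrations ran without input, with 200 uM small-molecule ligand, or with an oligonucleotide input. Normalised cluster fluorescence was curve-fitted, and apparent KD is the per-design median over clusters.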

[1] = Eterna round: R95, input ligand: FMN 200 uM
[2] = Eterna round: R95, input ligand: microRNA oligo, concentration not stated
[3] = Eterna round: R95, input ligand: none
[4] = input ligand: microRNA oligo, concentration not stated

Row | Sequence | apparent KD of MS2 coat protein (input ligand: FMN 200 uM) | apparent KD of MS2 coat protein (input ligand: none) | apparent KD of MS2 coat protein [1] | apparent KD of MS2 coat protein [2] | apparent KD of MS2 coat protein [3] | apparent KD of MS2 coat protein [4]
1 | GUUUUCAGACGGAGAUCCGACAUGAGGAUCACCCAUGUCUCACAAGCUUUUUGCUCGUCUUAUACUCCUCUGUUCUC [Elimod 43 - Jieux - Sensor, turn-off variant 1] (Eterna round: R97, puzzle: Sensor, turn-off variant 1) | 16.9 nM | 15.9 nM |  |  |  | 
2 | GCGUACUGAGGAUAUACAUGAGGAUCACCCAUGUGAAGAAGAAAGUAGUGAUGGUUAAGUAGAAGGCAGUAUGC [JR_Ex3_Sub063] (Eterna round: R97, puzzle: Exclusion 3) | 411 nM | 113 nM |  |  |  | 
3 | AAGAAACAUGAGGAUCACCCAUGUGAGGAUAUGAAAAAGAAAAGAAAAGAAAGAAGGGUCAGAAGGCACAAAGG [salish99-ex1_r3_028] (puzzle: Exclusion 1) |  |  | 24 nM | 25.3 nM | 35.5 nM | 
4 | AAAAAGCUAGGAUAUACAUGAGGAUCACCCAUGUGAGGGCACCGCGGGCGCGGGACCGGUAGAAGGAGCAAAAA [Exc;s3-III] (puzzle: Exclusion 3) |  |  | 23.5 nM | 24.9 nM | 29.1 nM | 
5 | GAUCGUUUAGAGGAUAUCAUGCUAAACAUUACAUGAGAAGGCUAGACAUGAGGAUCACCCAUGUAUGCUCGUGA [Exclusion 6 - 9:a] (puzzle: Exclusion 6) |  |  | 20.8 nM | 14 nM | 14.8 nM | 
6 | CGAUGUAACACAGGAUAUCAUCGCAACUGACGUUGAGAAGGGUGACAUGAGGAUCACCCAUGUGAUUUCUCAAUAUUAUACAUC [Prohibition 82 - Jieux - Exclusion NG 1] (Eterna round: R96, puzzle: Exclusion NG 1) | 715 nM | 1390 nM |  |  |  | 830 nM
7 | GUCAGCUCGUCAGGAUAUACAUGAGGAUCACCCAUGUGAUCAAUAGCAGCUUCGGCUGCAAUAAUGUAGAAGGGACGAGCUGAC [ENG2/8-F] (Eterna round: R96, puzzle: Exclusion NG 2) | 129 nM | 180 nM |  |  |  | 578 nM
8 | CUUUCGUGAGGAUAUGUGGCUUCGAUCGUGCGAUCGAGGCUACAGAAGGCACAUGAGGAUCACCCAUGUUCCUC [salish99_ex4_r4_221] (Eterna round: R97, puzzle: Exclusion 4) | 427 nM | 45.6 nM |  |  |  | 
9 | UUUUGCUCAGGAUAUACAUGAGGAUCACCCAUGUAUAUUGAAGAUAAUACAUGGGAAUGUAGAAGGGAGCUCAU [Omei Ex3 Pseudoloop 19] (Eterna round: R97, puzzle: Exclusion 3) | 73.5 nM | 156 nM |  |  |  | 
10 | UUUGGGCCUGUGAGGAUAUCGGGUUUGAAAGGGCCCGAGAAGGCACAUGAGGAUCACCCAUGUAAGGGCCCGGG [-32.7, -30.6 kcal, A 23%, 5a-5abis] (Eterna round: R97, puzzle: Brourd's mod of Exclusion 4) | 17.3 nM | 19.5 nM |  |  |  | 
11 | CACGAAGAGUGAGGAUAUGUGCGACAAAGUUGCACAGAAGGCACAUGAGGAUCACCCAUGUAAGCUAGGUCGAAAGACCUAGCG [Omei Exc(NG)1 Av3] (Eterna round: R96, puzzle: Exclusion NG 1) | 47.5 nM | 23.8 nM |  |  |  | 20.2 nM
12 | AGCAUGUGAGGAUAUGUACCUGAGUGCUUUGCGCUCAGGAAACAGAAGGCACAUGAGGAUCACCCAUGUGAAAA [jl-ex4-4.45 ViennaUCT mod] (Eterna round: R97, puzzle: Exclusion 4) | 68.7 nM | 281 nM |  |  |  | 
13 | AAAAUGUGAGGAUAUCACGGAGCUCCGCGUGACGAAGCUCCUGAGAAGGCACAUGAGGAUCACCCAUGUCCUGU [EX4 A.30] (Eterna round: R97, puzzle: Exclusion 4) | 296 nM | 54.4 nM |  |  |  | 
14 | GCAAGUUUUUUGUUUUUUAACAUGAGGAUCACCCAUGUAUUUUUAUAGUAUGUGUGAUUAAGAUCUUGUGGUCUUAG [JR_SV3TOV1_Sub101] (puzzle: Sensor v3, turn-off variant 1) |  |  | 59.1 nM | 92.2 nM | 62.9 nM | 
15 | AUUGUAUGGAAAGGAUAUAGAAUAUUAUUUUAACAUGAGGAUCACCCAUGUAACCUUAUGUGUAGCUAGAAGGUUCGUUUGUUA [Title] (Eterna round: R96, puzzle: Exclusion NG 2) |  |  |  |  |  | 69.2 nM
